Measured values taken from paper PMC2175346.

T1: I-PpoI (Physarum polycephalum, UniProt Q94702 1-163)
T1 sequence: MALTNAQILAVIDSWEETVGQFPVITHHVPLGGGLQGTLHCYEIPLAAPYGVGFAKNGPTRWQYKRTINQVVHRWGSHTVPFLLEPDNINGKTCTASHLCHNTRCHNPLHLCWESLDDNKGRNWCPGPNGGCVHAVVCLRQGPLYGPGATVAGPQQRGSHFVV

T2: I-AniI (Aspergillus nidulans, UniProt P03880 237-488)
T2 sequence: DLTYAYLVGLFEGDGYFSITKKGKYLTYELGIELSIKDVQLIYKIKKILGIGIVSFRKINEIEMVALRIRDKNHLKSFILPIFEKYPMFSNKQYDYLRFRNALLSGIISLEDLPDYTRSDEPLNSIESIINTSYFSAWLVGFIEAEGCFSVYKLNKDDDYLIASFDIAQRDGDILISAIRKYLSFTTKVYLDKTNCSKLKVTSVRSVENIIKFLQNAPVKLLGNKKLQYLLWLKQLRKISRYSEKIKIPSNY

B1: I-PpoI LL palindrome (dsDNA)
DNA 1: GGGGGTGCAGTGACTCTCTTAAGAGAGTCAGACGTGGGGG
DNA 2: CCCCCACGTCTGACTCTCTTAAGAGAGTCACTGCACCCCC
B2: I-PpoI RR palindrome (dsDNA)
DNA 1: GGGGGTGCAGTGGCTACCTTAAGGTAGCCAGACGTGGGGG
DNA 2: CCCCCACGTCTGGCTACCTTAAGGTAGCCACTGCACCCCC
B3: I-AniI WT site (dsDNA)
DNA 1: CCTTCCCTGAGGAGGTTTCTCTGTAAACCCTTCC
DNA 2: GGAAGGGTTTACAGAGAAACCTCCTCAGGGAAGG
B4: I-AniI WT-OPT site (dsDNA)
DNA 1: CCTTCCCTGAGGAGGTTACTCTGTTAACCCTTCC
DNA 2: GGAAGGGTTAACAGAGTAACCTCCTCAGGGAAGG

Key:
I-PpoI = biological target: T1, I-PpoI; experiment: ITC
I-AniI = biological target: T2, I-AniI; experiment: ITC

Binder | Kd (I-PpoI) | Kd (I-AniI)
B1 | 87 ± 8.8 nM | 
B2 | 23 ± 1.6 nM | 
B3 |  | 96 ± 10 nM
B4 |  | 8 ± 1 nM
